Data reported in the supplement of paper PMC10567573.

B1: PDZK1 (parent)
chain: QKEQGLSDNILSPVMNGGVQTWTQ
B2: IQUB (parent)
chain: EADYEDDSKIAFLMQLQDIQYLTE

Variants of: B1
Assay: protein stability index of a GFP-peptide fusion (GPS, HEK-293T) (PSI 1-6); higher = more stable
Conditions: c terminus: a fixed tail appended
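Further: lentivirally expressed fusions sorted by FACS into six bins by GFP to DsRed ratio, PSI derived from sequencing read proportions per bin multiplied by bin number.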

Protein stability index of substitutions, site by site:
M15: F 1.87; I 2.79; Y 2.44; D 3.02; Q 2.46; T 2.97; A 1.84; R 2.24; E 3.69; C 1.97; H 2.51; N 2.85; S 2.21
T21: D 4.85; C 2.66; M 3.63; N 3.65; E 3.71; K 3.46; R 3.23; A 3.61; Q 3.55; W 2.82; P 3.74; F 2.75; L 2.68
W22: S 5.05; E 4.3; D 4.78; K 4.93; I 4.88; P 5.07; R 5.04; C 4.8; Y 4.09; N 5.08; Q 5.24; M 4.55; H 4.59; F 3.97; A 4.41
G18: W 2.33; C 2.54; E 2.56; Y 2.45; M 2.58; R 1.84; V 2.47; K 1.53; D 3.35; A 3.46; I 2.61; H 2.62; P 3.46; N 2.67; L 2.58; F 2.45; S 2.65
N16: Y 2.45; R 2.34; S 2.81; L 2.47; F 2.61; I 2.89; H 2.81; D 3.71; E 3.41; C 2.75; K 1.49; Q 1.72; P 2.12
V19: K 2.16; Y 1.86; E 3.7; P 3.44; A 2.99; F 2.42; I 2.17; N 2.6; M 1.9; T 3.09; R 1.85; D 4.3; H 2.58; G 2.9
G17: S 3.31; H 1.91; L 2.8; V 3.6; K 2.13; F 2.19; M 2.36; I 3.36; W 1.85; Y 2.5; T 2.25; R 2.04; E 3.27; A 3.96
Q20: F 2.68; L 2.14; I 2.49; N 3.73; P 3.07; G 3.02; A 3.69; E 1.58; C 2.16; Y 2.68; K 3.8; V 2.67; S 2.88; D 3.29; W 3.36; T 3
Q24: K 3.55; H 2.84; E 3.43; D 3.13; I 2.36; M 2.26; T 3.66; P 4.43; F 1.78; G 3.58; R 3.35; V 2.72; C 2.14; S 1.68
T23: Y 3.05; Q 2.16; P 4.25; V 1.56; D 3.67; K 3.39; W 2.96; N 3.12; M 3.74; F 3.02; R 3.42; S 3.43; I 4; G 3.5
V14: Y 1.94

Variants of: B2
Assay: as above
Conditions: c terminus: a fixed tail appended

Protein stability index: each site, then its substitutions
I10: A 4; F 2.9; S 3.91; D 4.35; W 3.08; L 3; Q 4.12; K 4.01; G 4.13; V 3.42; R 3.82; C 3.34; E 4.43; M 3.2; H 4.29; T 3.5; P 4.53; N 4.17; Y 2.76
S8: Y 2.34; Q 3.32; I 2.15; F 1.89
